Test results from IntAct's records for PubMed 25009770.

B1: Heterogeneous nuclear ribonucleoprotein A1 (Homo sapiens), P09651-2 (parent)
chain: MSKSESPKEPEQLRKLFIGGLSFETTDESLRSHFEQWGTLTDCVVMRDPNTKRSRGFGFVTYATVEEVDAAMNARPHKVDGRVVEPKRAVSREDSQRPGAHLTVKKIFVGGIKEDTEEHHLRDYFEQYGKIEVIEIMTDRGSGKKRGFAFVTFDDHDSVDKIVIQKYHTVNGHNCEVRKALSKQEMASASSSQRGRSGSGNFGGGRGGGFGGNDNFGRGGNFSGRGGFGGSRGGGGYGGSGDGYNGFGNDGSNFGGGGSYNDFGNYNNQSSNFGPMKGGNFGGRSSGPYGGGGQYFAKPRNQGGYGGSSSSSSYGSGRRF
partner: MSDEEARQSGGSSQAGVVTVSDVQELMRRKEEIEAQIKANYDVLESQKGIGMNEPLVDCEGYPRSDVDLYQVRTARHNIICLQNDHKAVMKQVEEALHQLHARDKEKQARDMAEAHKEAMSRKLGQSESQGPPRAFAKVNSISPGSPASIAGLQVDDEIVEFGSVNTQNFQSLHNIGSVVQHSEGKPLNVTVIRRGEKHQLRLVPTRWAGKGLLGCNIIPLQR
B2: Transcription factor E2-alpha (Homo sapiens), P15923-1 (parent)
chain: MNQPQRMAPVGTDKELSDLLDFSMMFPLPVTNGKGRPASLAGAQFGGSGLEDRPSSGSWGSGDQSSSSFDPSRTFSEGTHFTESHSSLSSSTFLGPGLGGKSGERGAYASFGRDAGVGGLTQAGFLSGELALNSPGPLSPSGMKGTSQYYPSYSGSSRRRAADGSLDTQPKKVRKVPPGLPSSVYPPSSGEDYGRDATAYPSAKTPSSTYPAPFYVADGSLHPSAELWSPPGQAGFGPMLGGGSSPLPLPPGSGPVGSSGSSSTFGGLHQHERMGYQLHGAEVNGGLPSASSFSSAPGATYGGVSSHTPPVSGADSLLGSRGTTAGSSGDALGKALASIYSPDHSSNNFSSSPSTPVGSPQGLAGTSQWPRAGAPGALSPSYDGGLHGLQSKIEDHLDEAIHVLRSHAVGTAGDMHTLLPGHGALASGFTGPMSLGGRHAGLVGGSHPEDGLAGSTSLMHNHAALPSQPGTLPDLSRPPDSYSGLGRAGATAAASEIKREEKEDEENTSAADHSEEEKKELKAPRARTSPDEDEDDLLPPEQKAEREKERRVANNARERLRVRDINEAFKELGRMCQLHLNSEKPQTKLLILHQAVSVILNLEQQVRERNLNPKAACLKRREEEKVSGVVGDPQMVLSAPHPGLSEAHNPAGHM
partner: B1 partner
B3: Chorionic somatomammotropin hormone 1 (Homo sapiens), P0DML2 (parent)
chain: MAPGSRTSLLLAFALLCLPWLQEAGAVQTVPLSRLFDHAMLQAHRAHQLAIDTYQEFEETYIPKDQKYSFLHDSQTSFCFSDSIPTPSNMEETQQKSNLELLRISLLLIESWLEPVRFLRSMFANNLVYDTSDSDDYHLLKDLEEGIQTLMGRLEDGSRRTGQILKQTYSKFDTNSHNHDALLKNYGLLYCFRKDMDKVETFLRMVQCRSVEGSCGF
partner: B1 partner
B4: 26S proteasome non-ATPase regulatory subunit 9 (Homo sapiens), O00233 (parent)
chain: B1 partner

Variants of: B1
Settings: with psmd9_human PSMD9, O00233

Row | Variant | effect of a mutation on the interaction
1 | F320G | disrupting interaction strength

Variants of: B1
Settings: with psmd9_human PSMD9, O00233
Remark: another data set of the same source

Row | Variant | effect of a mutation on the interaction
2 | F320G | decreasing interaction strength

Variants of: B1
Settings: with psmd9_human PSMD9, O00233
Remark: another data set of the same source

Row | Variant | effect of a mutation on the interaction
3 | F320G | with no effect

Variants of: B2
Settings: with psmd9_human PSMD9, O00233

Row | Variant | effect of a mutation on the interaction
4 | M654G | decreasing interaction strength

Variants of: B3
Settings: with psmd9_human PSMD9, O00233

Row | Variant | effect of a mutation on the interaction
5 | F217G | with no effect

Variants of: B4
Settings: with HNRNPA1, P09651-2

Row | Variant | effect of a mutation on the interaction
6 | L173G | with no effect
7 | Q181G | disrupting interaction strength
8 | L124G;Q126G;E128G | disrupting interaction strength

Variants of: B4
Settings: with csh1_human CSH1, P0DML2

Row | Variant | effect of a mutation on the interaction
9 | L173G | with no effect
10 | Q181G | decreasing interaction strength
11 | L124G;Q126G;E128G | disrupting interaction strength

Variants of: B4
Settings: with rs14_human RPS14, P62263

Row | Variant | effect of a mutation on the interaction
12 | L173G | with no effect
13 | Q181G | disrupting interaction strength
14 | L124G;Q126G;E128G | disrupting interaction strength

Variants of: B4
Settings: with IL6R

Row | Variant | effect of a mutation on the interaction
15 | L173G | with no effect
16 | Q181G | disrupting interaction strength
17 | L124G;Q126G;E128G | disrupting interaction strength

Variants of: B4
Settings: with HNRNPA1, P09651-2
Remark: another data set of the same source

Row | Variant | effect of a mutation on the interaction
18 | Q181G | decreasing interaction strength
19 | L124G;Q126G;E128G | decreasing interaction strength
